According to paper PMC7470129, “Synthesis and structure-activity relationships of cerebroside analogues as substrates of cerebroside sulphotransferase and discovery of a competitive inhibitor” (Journal of Enzyme Inhibition and Medicinal Chemistry, 2020):
Blank lines part the entries; values can stand above or below the molecule they belong to.

Assays:
Assay in all cases: capillary electrophoresis enzyme assay, Michaelis-Menten kinetics (Km)
[1] = target: T1, galactosylceramide (cerebroside) sulphotransferase (CST) (Homo sapiens, UniProt Q99999); type: biochemical
T1 construct: gene GAL3ST1
T1 sequence (Q99999 1-423): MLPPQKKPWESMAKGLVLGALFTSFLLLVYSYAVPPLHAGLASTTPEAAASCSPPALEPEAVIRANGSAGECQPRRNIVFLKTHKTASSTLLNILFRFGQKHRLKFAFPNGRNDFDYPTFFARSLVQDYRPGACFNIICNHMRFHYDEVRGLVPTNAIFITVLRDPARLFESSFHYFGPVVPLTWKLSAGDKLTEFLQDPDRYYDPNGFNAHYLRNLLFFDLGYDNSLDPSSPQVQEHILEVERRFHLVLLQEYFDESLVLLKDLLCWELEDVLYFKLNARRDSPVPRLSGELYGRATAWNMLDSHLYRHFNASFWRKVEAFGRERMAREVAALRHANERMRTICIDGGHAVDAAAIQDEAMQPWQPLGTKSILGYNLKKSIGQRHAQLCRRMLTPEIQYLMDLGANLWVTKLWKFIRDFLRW

[2] = substrate: CCCCCCCCCCCCCCCCCCC(=O)N[C@@H](CO[C@H]1O[C@H](CO)[C@H](O)[C@H](O)[C@H]1O)[C@H](O)[C@H](O)CCCCCCCCCCCCCC; type: biochemical, Homo sapiens; conditions: PAPS
[3] = substrate: CCCCCCCCCCCCCC[C@@H](O)[C@@H](O)[C@H](CO[C@H]1O[C@H](CO)[C@H](O)[C@H](O)[C@H]1O)NC(=O)CCCC; type: biochemical, Homo sapiens; conditions: PAPS

- Km [1]: 550 µM
Molecule: CCCCCCCCCCCCCCCCCCCCCCCCCC(=O)N[C@@H](CO[C@@H]1O[C@H](CO)[C@H](O)[C@H](O)[C@H]1O)[C@H](O)[C@H](O)CCCCCCCCCCCCCC [compound 10, β-KRN7000]

- Km [1]: 438 µM
Molecule: CCCCCCCCCCCCCCCCCCCCCCCCCC(=O)N[C@@H](CO[C@H]1O[C@H](CO)[C@H](O)[C@H](O)[C@H]1O)[C@H](O)[C@H](O)CCCCCCCCCCCCCC [compound 18, KRN7000]

B1: galactosylceramide (cerebroside) sulphotransferase (CST) (Homo sapiens) (protein)
chain: T1 sequence (Q99999 1-423)
- Km [2]: 521 µM
- Vmax [2]: 0.0519 µmol/min/mg
- Km [3]: 358 µM
- Vmax [3]: 0.0449 µmol/min/mg
